Test results taken from patent publication US20220305135A1 (UNIVERSITY OF CHICAGO, published 2022).

Key:
[1] = molecular target: T1, extra domain A (EDA) of fibronectin; experiment: ELISA, EDA coated on plate, Fab titrated, anti-human IgG-HRP detection; apparent Kd by one-site nonlinear regression
T1 chain: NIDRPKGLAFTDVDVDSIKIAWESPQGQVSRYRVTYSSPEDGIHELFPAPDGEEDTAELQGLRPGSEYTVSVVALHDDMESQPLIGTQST

[2] = molecular target: T1, extra domain A (EDA) of fibronectin; experiment: ELISA on plates coated with 10 µg/mL EDA, detection with HRP anti-human IgG, absorbance at 450 nm [panel C]

- Kd [1]: 50.9 nM
- EC50 (read off the curve) [2]: ~80 nM
B1: Human anti-EDA Fab (Fab, V domains shown)
VH: EVQLLESGGGLVQPGGSLRLSCAASGFTFSVMKMSWVRQAPGKGLEWVSAISGSGGSTYYADSVKGRFTISRDNSKNTLYLQMNSLRAEDTAVYYCAKSTHLYLFDYWGQGTLVTVSS
VL: EIVLTQSPGTLSLSPGERATLSCRASQSVSNAFLAWYQQKPGQAPRLLIYGASSRATGIPDRFSGSGSGTDFTLTISRLEPEDFAVYYCQQMRGRPPTFGQGTKVEIKR
notes: Made recombinantly in HEK-293F cells
